Measured values taken from PMC10996437.
Like-named read-outs stand apart in the source and are kept apart here.

What was measured:
[1] = biological target: Poly-His tagged murine FAM72A (mouse) (UniProt Q8BFZ8); experiment: BLI
[2] = biological target: Poly-His tagged murine FAM72A (mouse) (UniProt Q8BFZ8); experiment: BLI; remark: listed apart in the source

UniProt Q8BFZ8, sequence (Q8BFZ8 whole entry): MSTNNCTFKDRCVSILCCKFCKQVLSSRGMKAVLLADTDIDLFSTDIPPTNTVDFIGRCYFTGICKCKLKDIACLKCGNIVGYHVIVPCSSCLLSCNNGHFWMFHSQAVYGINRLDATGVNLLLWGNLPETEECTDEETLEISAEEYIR

Row | Substance | Kd [1] [nM] | koff [1] [s⁻¹] | kon [1] [M⁻¹ s⁻¹] | Kd [2] [nM]
1 | murine uracil-DNA glycosylase, nuclear form (mUNG2), untagged (enzyme) | 600 | 0.023 | 43000 | 
2 | synthetic polypeptide containing the first 25 aa of mUNG2, C-terminal biotin | 1.9 | 0.037 |  | 188
